Test results published in US20210047418A1 (VESTLANDETS INNOVASJONSSELSKAP, published 2021).

Assays:
[1] = molecular target: T1, human integrin α11-EGFP (human, UniProt Q9UKX5 23-1188); assay: Western blot on C2C12-hu α11-EGFP lysate (FIG. 1D)
T1 construct: whole, on cells; Fusion of about 180 kDa by the legend; In the Western blot it stood as denatured protein from cell lysate; also called hu α11-EGFP; C2C12-hu α11-EGFP; not shown: EGFP tag
T1 sequence (looked up): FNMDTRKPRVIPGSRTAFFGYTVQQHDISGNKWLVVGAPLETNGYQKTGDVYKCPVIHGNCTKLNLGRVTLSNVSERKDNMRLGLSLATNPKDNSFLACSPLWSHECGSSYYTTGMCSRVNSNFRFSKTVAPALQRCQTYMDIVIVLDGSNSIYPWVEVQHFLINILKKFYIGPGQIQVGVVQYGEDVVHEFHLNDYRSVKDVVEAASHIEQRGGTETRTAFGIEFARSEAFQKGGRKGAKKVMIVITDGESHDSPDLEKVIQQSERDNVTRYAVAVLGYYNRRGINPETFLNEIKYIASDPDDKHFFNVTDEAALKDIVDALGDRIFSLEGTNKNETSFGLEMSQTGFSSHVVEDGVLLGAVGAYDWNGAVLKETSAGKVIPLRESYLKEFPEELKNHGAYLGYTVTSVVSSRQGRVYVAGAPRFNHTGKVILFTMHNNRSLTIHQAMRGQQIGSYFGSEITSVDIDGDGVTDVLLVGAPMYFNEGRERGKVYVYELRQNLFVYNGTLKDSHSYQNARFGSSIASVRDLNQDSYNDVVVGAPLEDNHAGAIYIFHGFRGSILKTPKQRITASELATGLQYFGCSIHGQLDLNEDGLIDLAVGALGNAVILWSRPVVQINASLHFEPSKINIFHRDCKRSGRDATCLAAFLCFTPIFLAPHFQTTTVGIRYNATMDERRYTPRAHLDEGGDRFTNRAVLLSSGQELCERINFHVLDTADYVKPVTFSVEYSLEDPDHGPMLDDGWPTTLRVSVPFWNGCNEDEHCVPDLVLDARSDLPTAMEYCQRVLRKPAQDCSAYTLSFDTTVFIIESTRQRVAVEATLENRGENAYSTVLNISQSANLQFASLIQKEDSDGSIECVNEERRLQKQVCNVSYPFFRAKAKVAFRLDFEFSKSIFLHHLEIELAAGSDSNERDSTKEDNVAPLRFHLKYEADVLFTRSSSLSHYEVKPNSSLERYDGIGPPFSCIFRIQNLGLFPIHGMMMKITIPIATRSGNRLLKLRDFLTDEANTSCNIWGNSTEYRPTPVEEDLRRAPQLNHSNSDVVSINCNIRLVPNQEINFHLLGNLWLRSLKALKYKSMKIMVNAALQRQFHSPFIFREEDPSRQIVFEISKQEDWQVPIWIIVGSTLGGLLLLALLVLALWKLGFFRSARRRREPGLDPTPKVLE

[2] = molecular target: T2, human integrin α11 subunit (human, UniProt Q9UKX5 23-1188); assay: immunoprecipitation from C2C12-α11 cell lysate, Western blot detection with the polyclonal α11 antibody (FIG. 1C)
T2 construct: whole, on cells; In C2C12-α11 cells and their lysates the human α11 chain is present as α11β1 heterodimer (the legend says 'Immunoprecipitation of integrin α11β1'); the β1 partner in the mouse cells is not described; In the staining and blot experiments cells were methanol fixed, lysed or the tissue was formalin fixed and paraffin embedded; also called alpha-11 integrin subunit; integrin chain α11
T2 sequence (looked up): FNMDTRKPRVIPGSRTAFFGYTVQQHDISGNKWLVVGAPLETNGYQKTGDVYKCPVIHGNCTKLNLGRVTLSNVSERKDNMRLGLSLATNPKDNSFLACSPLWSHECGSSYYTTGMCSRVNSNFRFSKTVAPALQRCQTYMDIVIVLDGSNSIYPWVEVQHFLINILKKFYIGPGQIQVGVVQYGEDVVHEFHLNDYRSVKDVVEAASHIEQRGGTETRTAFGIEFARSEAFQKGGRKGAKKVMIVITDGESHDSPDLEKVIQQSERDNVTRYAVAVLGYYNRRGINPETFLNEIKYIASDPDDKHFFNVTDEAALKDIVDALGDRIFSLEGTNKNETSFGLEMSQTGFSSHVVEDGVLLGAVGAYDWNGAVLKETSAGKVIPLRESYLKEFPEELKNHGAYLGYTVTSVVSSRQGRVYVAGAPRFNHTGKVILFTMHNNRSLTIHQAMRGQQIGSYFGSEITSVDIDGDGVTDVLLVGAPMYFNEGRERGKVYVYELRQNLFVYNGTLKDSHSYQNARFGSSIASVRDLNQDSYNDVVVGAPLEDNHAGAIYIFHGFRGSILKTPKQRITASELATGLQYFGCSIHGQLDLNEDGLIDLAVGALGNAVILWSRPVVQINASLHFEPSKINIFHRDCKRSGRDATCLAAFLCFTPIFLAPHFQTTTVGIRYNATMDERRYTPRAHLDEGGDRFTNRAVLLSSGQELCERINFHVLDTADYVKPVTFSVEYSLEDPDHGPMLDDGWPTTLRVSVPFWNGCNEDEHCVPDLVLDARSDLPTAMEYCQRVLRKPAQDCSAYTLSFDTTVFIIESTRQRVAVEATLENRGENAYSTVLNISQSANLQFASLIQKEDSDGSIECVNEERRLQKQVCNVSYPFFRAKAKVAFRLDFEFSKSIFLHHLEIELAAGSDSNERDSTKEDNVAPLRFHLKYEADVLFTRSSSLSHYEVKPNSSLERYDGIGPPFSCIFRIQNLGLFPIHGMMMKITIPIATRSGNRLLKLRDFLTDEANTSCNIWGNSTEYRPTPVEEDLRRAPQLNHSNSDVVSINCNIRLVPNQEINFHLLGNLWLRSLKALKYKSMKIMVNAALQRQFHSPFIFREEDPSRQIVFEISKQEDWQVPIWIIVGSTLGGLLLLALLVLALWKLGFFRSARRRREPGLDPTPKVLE
Protocol: FIG. 1. Immunological characterization of 210F4B6A4 mAb [0019] A-B. C2C12 mouse myoblast cells expressing human integrin α11-EGFP or WT (wildtype) C2C12 cells were stained with 210F4B6A4 mAb for 1 hour at 4° C. Cells were then washed and stained with goat anti-mouse R-Phycoerythrin IgG. Samples were analysed by flow cytometry using Intellicyt iQue and fluorescence intensity was measured. [0020] C. Immunoprecipitation (IP) of integrin α11β1 with the 210F4B6A4 mAb and the polyclonal α11 antibody (α11 pAb)[5]. Protein bands of integrin chain α11 at the expected size after immunoprecipitation using α11 antibodies followed by Western blotting and detection using the polyclonal α11 antibody. [0021] D. Western-blotting (WB) using the α11 210F4B6A4 mAb on C2C12-hu α11-EGFP lysate, shown is the protein band of expected size of aα11-EGFP (180 kDa). [0022] E. C2C12 mouse myoblast cells expressing human integrin α11 were allowed to attach on collagen I-cocated coverslips for 2 hours, cell were then fixed with methanol and incubated with 210F4B6A4 mAb or control IgG. Bound antibody was detected using goat anti-mouse Alexa Fluor 594. Integrin α11 staining in cell focal adhesions is indicated by white arrowheads. […]

- binding result [1]: binds
- binding result [2]: binds
B1: monoclonal mouse anti-human integrin alpha-11 antibody clone 210 F4B6A4 produced by the hybridoma deposited as DSM ACC3320 (antibody, V domains shown)
VH: EVQLQQSGAELVRPGASVKVSCTASGFNIKDDYIHWMRRRPAQGLEWIGWIDPENGDTEYASNFQGKATTTVDVSSNTAYLQLSRLTSEDTAIYYCSREYAYWGQGTLVTVSA
VL: DVVMTQTPLSLPVSLGDQASISCRSSQSLLYSNGNTYLQWYLQKPGQSPKLLIYRASNRFSGVPDRFSGSGSGTDFTLKISRVEAEDLGVYFCSQSTHVPWTFGGGTKLEIK
notes: Mouse monoclonal antibody from hybridoma (used partly as hybridoma supernatant); also called 210F4B6A4 mAb; F210F4B6A4
